Results reported in the supplement of paper PMC10724198.
± gives the standard deviation of the averaged measurements.

Legend:
Saccharomyces cerevisiae [1] = experiment: protein stability index of tFT-peptide fusion (C-terminal peptide) (PSI (0-1 scale)); higher = more stable (slower turnover); settings: genetic background: wild type; temperature: 30 C
Saccharomyces cerevisiae [2] = experiment: as above
Experimental: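 MPS profiling in S. cerevisiae of the tFT-X12 degron library: putative degron peptides plus stable controls, 12 aa, fused to the C-terminus of a sfGFP-mCherry timer. Cells are FACS-sorted into 8 mCherry/sfGFP bins and deep-sequenced. PSI runs from 0 (unstable) to 1 (stable). Backgrounds are wild type, das1Δ and doa10Δ at 30 °C, and wild type, das1Δ, cdc34-1 and cdc53-1 at 37 °C; 2-3 technical replicates each.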

[3] = genetic background: cdc34-1, temperature: 37 C
[4] = genetic background: cdc53-1, temperature: 37 C
[5] = genetic background: das1 deletion, temperature: 30 C
[6] = genetic background: das1 deletion, temperature: 37 C
[7] = genetic background: doa10 deletion, temperature: 30 C
[8] = genetic background: wild type, temperature: 30 C
[9] = genetic background: wild type, temperature: 37 C
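Note: PSI is a weighted mean of sequencing reads over stability bins, variants kept only with over 10 reads, mCherry proximal and sfGFP distal, peptide attached via GGGS linker.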

Sequence	protein stability index (Saccharomyces cerevisiae [1])	protein stability index (Saccharomyces cerevisiae [2]; [3])	protein stability index (Saccharomyces cerevisiae [2]; [4])	protein stability index (Saccharomyces cerevisiae [2]; [5])	protein stability index (Saccharomyces cerevisiae [2]; [6])	protein stability index (Saccharomyces cerevisiae [2]; [7])	protein stability index (Saccharomyces cerevisiae [2]; [8])	protein stability index (Saccharomyces cerevisiae [2]; [9])
VFFLAFYFYRCF	0.262 ± 0.02	0.405 ± 0.02	0.464 ± 0.018	0.416 ± 0.015	0.545 ± 0.0085	0.186 ± 0.0064	0.194 ± 0.029	0.365 ± 0.0085
VFMSVAPVSVLG	0.29 ± 0.015	0.115 ± 0.047	0.118 ± 0.045	0.198 ± 0.026	0.2589 ± 0.00033	0.154 ± 0.016	0.184 ± 0.023	0.235 ± 0.0013
VFSAIPDWLILA	0.453 ± 0.0079	0.492 ± 0.017	0.5094 ± 0.0035	0.387 ± 0.041	0.5492 ± 0.0043	0.279 ± 0.013	0.319 ± 0.016	0.462 ± 0.018
VFSVTVVFVSVL	0.298 ± 0.046	0.158 ± 0.0021	0.271 ± 0.062	0.192 ± 0.035	0.383 ± 0.014	0.168 ± 0.011	0.191 ± 0.024	0.324 ± 0.012
VFVGGVSVLILF	0.516 ± 0.044	0.531 ± 0.051	0.638 ± 0.0089	0.438 ± 0.026	0.602 ± 0.0081	0.413 ± 0.0093	0.434 ± 0.033	0.584 ± 0.0086
VFWLLVGLGCFS	0.481 ± 0.012	0.561 ± 0.017	0.563 ± 0.013	0.431 ± 0.025	0.572 ± 0.0075	0.41 ± 0.033	0.417 ± 0.028	0.5686 ± 0.0022
VFYWVGVLCGWG	0.375 ± 0.007	0.298 ± 0.0073	0.391 ± 0.045	0.293 ± 0.026	0.4352 ± 0.0014	0.252 ± 0.012	0.29 ± 0.023	0.405 ± 0.018
VGCMVVIWVLWG	0.325 ± 0.043	0.153 ± 0.0096	0.225 ± 0.025	0.19 ± 0.034	0.313 ± 0.013	0.145 ± 0.001	0.18 ± 0.026	0.278 ± 0.025
VGFCICISIMSF	0.213 ± 0.046	0.0373 ± 0.016	0.109 ± 0.025	0.125 ± 0.025	0.214 ± 0.023	0.09907 ± 0.00077	0.108 ± 0.031	0.209 ± 0.027
VGPLAPVCLLVL	0.459 ± 0.046	0.445 ± 0.025	0.4817 ± 0.0043	0.36 ± 0.038	0.516 ± 0.013	0.325 ± 0.012	0.359 ± 0.019	0.477 ± 0.0057
VILCSCSFVLRP	0.401 ± 0.0085	0.523 ± 0.011	0.583 ± 0.023	0.373 ± 0.021	0.57243 ± 0.00022	0.362 ± 0.026	0.376 ± 0.02	0.5617 ± 0.0053
VKIEVICRVSLI	0.429 ± 0.024	0.334 ± 0.031	0.459 ± 0.028	0.403 ± 0.02	0.495 ± 0.043	0.338 ± 0.0092	0.394 ± 0.05	0.404 ± 0.0055
VLCFFWWWCRVC	0.43 ± 0.017	0.4 ± 0.021	0.525 ± 0.038	0.472 ± 0.019	0.583 ± 0.044	0.353 ± 0.02	0.324 ± 0.035	0.4133 ± 0.001
VLFVRGHTLWLM	0.505 ± 0.033	0.6124 ± 0.0026	0.675 ± 0.01	0.556 ± 0.024	0.702 ± 0.025	0.4861 ± 0.0031	0.458 ± 0.017	0.6344 ± 0.0035
VLSCIPRLAIAA	0.327 ± 0.017	0.335 ± 0.01	0.372 ± 0.019	0.284 ± 0.023	0.404 ± 0.008	0.235 ± 0.0017	0.251 ± 0.0058	0.318 ± 0.0072
VLVVTAFTFSCP	0.324 ± 0.0049	0.352 ± 0.049	0.4393 ± 0.00063	0.327 ± 0.018	0.416 ± 0.022	0.319 ± 0.015	0.317 ± 0.015	0.392 ± 0.02
VLVVVRSLSFLS	0.382 ± 0.019	0.405 ± 0.065	0.51 ± 0.011	0.347 ± 0.025	0.534 ± 0.015	0.308 ± 0.013	0.31 ± 0.023	0.496 ± 0.013
VNRRCWISRTLP	0.258 ± 0.065	0.599 ± 0.023	0.716 ± 0.0041	0.645 ± 0.024	0.713 ± 0.012	0.137 ± 0.039	0.174 ± 0.04	0.289 ± 0.058
VPASWLRMLAFC	0.05335 ± 0.00032	0.197 ± 0.0024	0.578 ± 0.025	0.559 ± 0.024	0.701 ± 0.047	0.0659 ± 0.0043	0.0647 ± 0.013	0.0629 ± 0.016
VRFSAVFVKVGV	0.4727 ± 0.0026	0.547 ± 0.031	0.553 ± 0.0091	0.395 ± 0.026	0.5703 ± 0.0032	0.377 ± 0.0083	0.402 ± 0.023	0.5317 ± 0.0017
